Assay results as given in patent US20100167390, “Novel Oligonucleotide and NF-kB Decoy Comprising the Same” (published 2010).

What was measured:
[1] = molecular target: T1, NF-kB p65 (RelA) (UniProt Q04206 Q04206:1-551); assay: competition; conditions: protein: extract; tags: TPA and CI-stimulated Jurkat nuclear extract, Active Motif TransAM kit
Description: The binding capacity of each SODN to NF-κB was evaluated by measuring the remaining free NF-κB after reacting each SODN with NF-κB (p65), using a commercially available kit (TransAM Kit (NF-κB, p65, ACTIVE MOTIF) for measuring NF-κB, and using NF-κB molecules in the Jurkat, TPA and CI-Stimulated, Nuclear Extract (nuclear extract of Jurkat cells stimulated with a phorbol ester (TPA) and a calcium ionophore (CI)). The measurement was performed in accordance with the instructions attached to the kit. The kit was made for quantifying the NF-κB bound to the solid phase by ELISA after adding an NF-κB solution to the wells in which the NF-κB (p65 protein) consensus binding sequence was immobilized and after washing the resultant. By this measurement method, the higher the binding capacity of the oligonucleotide to the NF-κB, the smaller amount of the NF-κB quantified by the ELISA.
More concretely, the above-described measurement was carried out as follows concretely: Each SODN solution was serially diluted with Complete Binding Buffer contained in the kit to prepare test samples (common ratio: 3-fold, 4 times, n=3). To each well, 30 μL of the test sample was added. To the wells of the control and blank, Complete Binding Buffer was added. To each well, 20 μL of the Jurkat, TPA and CI-Stimulated, Nuclear Extract contained in the kit, after dilution with Complete Lysis Buffer to a concentration of 125 μg/mL, was added. To the wells of the blank, Complete Lysis Buffer was added. After incubation for 1 hour with shaking, each well was washed with 1× Wash Buffer contained in the kit, and an anti-NF-κB (p65 protein) antibody was added, followed by incubation for 1 hour. Each well was washed with 1× Wash Buffer, and the Developing Solution contained in the kit was added. After allowing coloration for 10 minutes, the Stop Solution was added to stop the reaction, and the absorbances at 450 nm and 630 nm were measured.
The binding capacities of the partially phosphorothioated oligonucleotides (the bonds between only all of the nucleotides constituting the consensus sequence in both strands are phosphorothioated, hereinafter also referred to as “PSODN”) of SODNs 7, 8, 9, 16, 17 and 30 of the present invention to the NF-κB (p65 protein) were tested in the same manner as described above.

[2] = molecular target: NF-kB p50 (NFKB1) (UniProt P19838 P19838:1-433); assay: competition; conditions: protein: extract; tags: TPA and CI-stimulated Jurkat nuclear extract, Active Motif
Description: (§1) The study was carried out in basically the same manner as in the above-described primary screening. The activities to inhibit the binding of various NF-κB family proteins to the consensus NF-κB binding site were compared under the conditions of common ratio of 3-fold, 6 times, n=2. As a control for comparison, fully phosphorothioated decoy oligonucleotide […] (SEQ ID NO:103) was used. The binding inhibition tests against various NF-κB family proteins were conducted using NF-κB Family TransAM Kit (ACTIVE MOTIF), and using NF-κB molecules in the Jurkat, TPA and CI-Stimulated, Nuclear Extract (ACTIVE MOTIF) for p50, and using NF-κB molecules in the Raji nuclear extract (ACTIVE MOTIF) for Rel-B and p52. As the primary antibodies, anti-NF-κB p50 antibody, anti-NF-κB p52 antibody and anti-Rel-B antibody were used, respectively, and the secondary antibody was HRP-labeled anti-rabbit IgG antibody in all cases.
(§2) More concretely, the above-described measurements were carried out as follows: Each oligonucleotide solution was serially diluted with Complete Binding Buffer to prepare test samples. Each of the test samples was added to the wells in an amount of 30 μL per well, and Complete Binding Buffer was added to the wells of the control and blank. Nuclear extract diluted with Complete Lysis Buffer was added to the wells in an amount of 20 μL per well, and Complete Lysis Buffer was added to the wells of blank. After incubation for 1 hour with shaking, each well was washed with 1× Wash Buffer, and the primary antibody was added, followed by incubation for 1 hour. Each well was washed with 1× Wash Buffer, and the secondary antibody was added, followed by incubation for 1 hour. Each well was washed with 1× Wash Buffer, and the Developing Solution was added. After allowing coloration for 10 minutes, the Stop Solution was added to stop the reaction, and the absorbances at 450 nm and 630 nm were measured.
(§3) The absorbance at 630 nm was subtracted from the absorbance at 450 nm and the mean value of the blanks was further subtracted from the resultant, and the percentage of the mean value of each concentration based on the mean value of the controls was calculated.

[3] = molecular target: T2, NF-kB p52 (NFKB2) (UniProt Q00653 Q00653:1-454); assay: competition; conditions: protein: extract; tags: Raji nuclear extract, Active Motif
T2 sequence: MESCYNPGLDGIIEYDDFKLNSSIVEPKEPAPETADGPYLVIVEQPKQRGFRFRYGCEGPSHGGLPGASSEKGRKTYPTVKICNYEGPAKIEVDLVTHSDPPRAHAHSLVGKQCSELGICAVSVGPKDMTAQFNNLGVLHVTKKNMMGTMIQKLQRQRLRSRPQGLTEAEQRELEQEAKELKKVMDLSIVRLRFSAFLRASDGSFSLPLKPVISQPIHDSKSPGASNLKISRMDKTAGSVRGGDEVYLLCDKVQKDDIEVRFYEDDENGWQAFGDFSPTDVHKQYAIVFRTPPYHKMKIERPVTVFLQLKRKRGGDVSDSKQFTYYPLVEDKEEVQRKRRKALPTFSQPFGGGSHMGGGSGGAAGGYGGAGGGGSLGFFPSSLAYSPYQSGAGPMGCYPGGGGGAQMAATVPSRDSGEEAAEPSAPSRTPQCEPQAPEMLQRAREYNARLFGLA
Description: as §1, §2, §3

[4] = molecular target: T1, NF-kB p65 (RelA); assay: competition; conditions: protein: extract; tags: TPA and CI-stimulated Jurkat nuclear extract, Active Motif TransAM kit; remark: listed apart in the source
Description: To study the influence by the phosphorothioation site in the oligonucleotide sequence, decoy oligonucleotides (FSODN) in which only the flanking sequences were phosphorothioated and decoy oligonucleotides (ODN) without phosphorothioation having the same sequences, respectively, were synthesized. The binding inhibition activities were compared under the conditions of common ratio of 3-fold, 6 times, n=2. The binding inhibition tests against NF-κB p65 protein was carried out using NF-κB, p65 TransAM Kit (produced by ACTIVE MOTIF), and using NF-κB protein molecules in the Jurkat, TPA and CI-Stimulated, Nuclear
Extract (produced by ACTIVE MOTIF). The testing method was the same as in the above-described Example 5. The term “only the flanking sequences were phosphorothioated” means that the bonds in the flanking sequences and the bonds between the respective flanking sequences and the core were phosphorothioated. For example, as for Sequence 7, it is CsGsCs[…]sAsGsC. The values for PSODNs are those obtained in the secondary screening (above-described Table 4).

[5] = molecular target: T1, NF-kB p65 (RelA); assay: competition; primary screen 2.23; conditions: protein: extract; tags: TPA and CI-stimulated Jurkat nuclear extract, Active Motif TransAM kit
Description: (§4) The measurement was performed in accordance with the instructions attached to the kit. The kit was made for quantifying the NF-κB bound to the solid phase by ELISA after adding an NF-κB solution to the wells in which the NF-κB (p65 protein) consensus binding sequence was immobilized and after washing the resultant. By this measurement method, the higher the binding capacity of the oligonucleotide to the NF-κB, the smaller amount of the NF-κB quantified by the ELISA.
(§5) More concretely, the above-described measurement was carried out as follows concretely: Each SODN solution was serially diluted with Complete Binding Buffer contained in the kit to prepare test samples (common ratio: 3-fold, 4 times, n=3). […] After allowing coloration for 10 minutes, the Stop Solution was added to stop the reaction, and the absorbances at 450 nm and 630 nm were measured.
(§6) The absorbance at 630 nm was subtracted from the absorbance at 450 nm and the mean value of the blanks was further subtracted from the resultant, and the percentage of the mean value of each concentration based on the mean value of the controls was calculated. The concentration at which the calculated value was 50% (i.e., at which the binding was inhibited by 50%) was calculated from the regression lines between two points interposing 50% (an analysis software Graph Pad PRISM 4, GraphPad SOFTWARE was used). […]

[6] = molecular target: T1, NF-kB p65 (RelA); assay: competition; primary screen 1.61; conditions: protein: extract; tags: TPA and CI-stimulated Jurkat nuclear extract, Active Motif TransAM kit
Description: as §4, §5, §6

[7] = molecular target: T1, NF-kB p65 (RelA); assay: competition; primary screen 1.31; conditions: protein: extract; tags: TPA and CI-stimulated Jurkat nuclear extract, Active Motif TransAM kit
Description: as §4, §5, §6

[8] = molecular target: T1, NF-kB p65 (RelA); assay: competition; primary screen >5; conditions: protein: extract; tags: TPA and CI-stimulated Jurkat nuclear extract, Active Motif TransAM kit
Description: as §4, §5, §6

[9] = molecular target: T1, NF-kB p65 (RelA); assay: competition; primary screen 2.01; conditions: protein: extract; tags: TPA and CI-stimulated Jurkat nuclear extract, Active Motif TransAM kit
Description: as §4, §5, §6

T1 sequence (Q04206 whole entry, one chain of several): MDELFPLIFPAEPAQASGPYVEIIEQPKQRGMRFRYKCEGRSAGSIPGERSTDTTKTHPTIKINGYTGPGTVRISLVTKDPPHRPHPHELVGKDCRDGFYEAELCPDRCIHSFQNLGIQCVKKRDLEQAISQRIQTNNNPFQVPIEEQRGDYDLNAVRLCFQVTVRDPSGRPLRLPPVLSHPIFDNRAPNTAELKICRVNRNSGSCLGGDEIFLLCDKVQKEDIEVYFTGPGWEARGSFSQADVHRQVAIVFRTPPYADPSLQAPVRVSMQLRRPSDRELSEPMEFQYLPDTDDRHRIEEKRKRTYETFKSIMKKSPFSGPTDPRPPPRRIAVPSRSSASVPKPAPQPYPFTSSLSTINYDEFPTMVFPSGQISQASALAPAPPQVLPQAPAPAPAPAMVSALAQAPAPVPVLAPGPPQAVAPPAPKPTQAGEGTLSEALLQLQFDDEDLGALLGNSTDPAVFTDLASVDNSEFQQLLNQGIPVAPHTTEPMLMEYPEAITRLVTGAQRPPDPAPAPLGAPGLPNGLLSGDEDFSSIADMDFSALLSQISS
NF-kB p50 (NFKB1), sequence (P19838 1-433, one chain of several): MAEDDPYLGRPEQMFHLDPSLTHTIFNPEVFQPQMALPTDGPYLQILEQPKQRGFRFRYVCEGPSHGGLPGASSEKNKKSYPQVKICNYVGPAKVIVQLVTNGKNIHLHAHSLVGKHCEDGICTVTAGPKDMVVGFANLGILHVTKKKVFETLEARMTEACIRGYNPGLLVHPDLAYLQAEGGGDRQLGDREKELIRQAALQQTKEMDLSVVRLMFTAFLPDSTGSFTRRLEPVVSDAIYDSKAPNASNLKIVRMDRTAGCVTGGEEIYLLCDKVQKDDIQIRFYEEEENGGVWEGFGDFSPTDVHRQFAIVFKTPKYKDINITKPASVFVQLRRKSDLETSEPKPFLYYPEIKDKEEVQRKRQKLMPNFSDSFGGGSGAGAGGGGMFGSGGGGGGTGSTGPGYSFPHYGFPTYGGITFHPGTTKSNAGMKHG

B1: PSODN8 (dsDNA)
DNA 1: CCCGGGATTTCCCACC
DNA 2: GGTGGGAAATCCCGGG
modifications: PS only within consensus gggatttccc, both strands
Q: Which results are given for B1?
A: IC50 [1]: 0.63 nM; IC50 [2]: 1.08 nM; IC50 [3]: 3.22 nM

B2: FSODN16 (dsDNA)
DNA 1: CGCAGGGATTTCCCGCG
DNA 2: CGCGGGAAATCCCTGCG
modifications: PS only in flanks and flank-core bonds
Q: With B2 as the binder, how does the IC50 [4] read?
A: 1.11 nM

B3: SODN27 (dsDNA)
DNA 1: CGCAGGGATTTCCCGCGC
DNA 2: GCGCGGGAAATCCCTGCG
modifications: PS all bonds, both strands
Q: B3 was tested. Which IC50 [5] did it give?
A: 2.87 nM

B4: SODN7 (dsDNA)
DNA 1: CGCGGGATTTCCCAGC
DNA 2: GCTGGGAAATCCCGCG
modifications: PS all bonds, both strands
Q: Which IC50 [6] does the source give for B4 here?
A: 1.75 nM

B5: PSODN30 (dsDNA)
DNA 1: GGCTGGGATTTCCCGCGG
DNA 2: CCGCGGGAAATCCCAGCC
modifications: PS only within consensus gggatttccc, both strands
Q: What does the source list for B5?
A: IC50 [1]: 0.48 nM; IC50 [2]: 0.69 nM; IC50 [3]: 2.11 nM

B6: SODN6 (dsDNA)
DNA 1: CGAGGGATTTCCCGGC
DNA 2: GCCGGGAAATCCCTCG
modifications: PS all bonds, both strands
Q: For B6, which IC50 [7] is on record?
A: 2.33 nM

B7: SODN83 (dsDNA)
DNA 1: CAAGTAGGGATTTCCCATAC
DNA 2: GTATGGGAAATCCCTACTTG
modifications: PS all bonds, both strands
Q: How did the IC50 [8] turn out when B7 was run?
A: 7.33 nM

B8: SODN8 (dsDNA)
DNA 1: CCCGGGATTTCCCACC
DNA 2: GGTGGGAAATCCCGGG
modifications: PS all bonds, both strands
Q: Which IC50 [9] does the source give for B8 here?
A: 2.12 nM

B9: SODN9 (dsDNA)
DNA 1: GGAGGGATTTCCCGGG
DNA 2: CCCGGGAAATCCCTCC
modifications: PS all bonds, both strands
Q: For B9, which IC50 [9] is on record?
A: 1.88 nM
